According to US20260125457A1 (Janssen / Centocor, published 2026):

T1: CALRins5 (mutant calreticulin, 5 base pair insertion, Type 2) expressed with MPL on engineered cancer cells (UniProt P27797 18-417)
T1 construct: whole, on cells; On the cell surface in complex with MPL; also called OCI-M2 MPL CALRins5
T1 sequence (looked up): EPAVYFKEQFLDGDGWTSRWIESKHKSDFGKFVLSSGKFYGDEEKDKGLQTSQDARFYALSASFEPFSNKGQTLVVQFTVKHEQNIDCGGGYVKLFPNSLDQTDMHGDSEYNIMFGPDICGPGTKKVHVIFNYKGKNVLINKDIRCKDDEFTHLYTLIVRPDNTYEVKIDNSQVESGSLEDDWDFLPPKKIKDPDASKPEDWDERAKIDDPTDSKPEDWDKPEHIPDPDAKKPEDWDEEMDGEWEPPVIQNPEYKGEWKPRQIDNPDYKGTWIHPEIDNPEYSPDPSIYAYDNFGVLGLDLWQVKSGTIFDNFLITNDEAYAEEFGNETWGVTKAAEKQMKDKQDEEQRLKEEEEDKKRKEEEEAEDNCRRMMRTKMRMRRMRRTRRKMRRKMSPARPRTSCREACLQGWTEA

T2: wild-type calreticulin (CALRwt) expressed with MPL in engineered cancer cells (UniProt P27797 18-417, limits assumed)
T2 construct: whole, on cells; also called OCI-M2 MPL CALRwt
T2 sequence (looked up): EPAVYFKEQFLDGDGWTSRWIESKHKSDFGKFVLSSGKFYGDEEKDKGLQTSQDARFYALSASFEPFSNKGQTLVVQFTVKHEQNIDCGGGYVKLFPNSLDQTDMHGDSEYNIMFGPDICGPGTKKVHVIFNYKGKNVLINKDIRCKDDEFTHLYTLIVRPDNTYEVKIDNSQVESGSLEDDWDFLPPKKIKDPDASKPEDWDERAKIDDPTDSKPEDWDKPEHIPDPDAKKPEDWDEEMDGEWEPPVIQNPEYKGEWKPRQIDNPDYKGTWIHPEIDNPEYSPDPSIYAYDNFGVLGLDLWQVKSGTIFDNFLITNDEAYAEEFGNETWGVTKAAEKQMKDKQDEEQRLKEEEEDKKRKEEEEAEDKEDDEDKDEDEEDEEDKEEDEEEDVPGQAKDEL

B1: C3CRB133 CALRmut x CD3 bispecific antibody (bispecific antibody, human IgG1, kappa, L234A L235A)
scFv: DIQMTQSPSSLSASVGDRVTITCRARQSIGTAIHWYQQKPGCAPKLLIKYASESISGVPSRFSGSGSGTDFTLTISSLQPEDFATYYCQQSGSWPYTFGQGTKLEIKGGGSGGSGGCPPCGGSGGEVQLVESGGGLVKPGGSLRLSCAASGFTFSRYNMNWVRQAPGKGLEWVSSISTSSNYIYYADSVKGRFTFSRDNAKNSLDLQMSGLRAEDTAIYYCTRGWGPFDYWGCGTLVTVSSEPKSSDKTHTCPPCPAPEAAGGPSVFLFPPKPKDTLMISRTPEVTCVVVSVSHEDPEVKFNWYVDGVEVHNAKTKPREEQYNSTYRVVSVLTVLHQDWLNGKEYKCKVSNKALPAPIEKTISKAKGQPREPQVYTLPPSREEMTKNQVSLWCLVKGFYPSDIAVEWESNGQPENNYKTTPPVLDSDGSFFLYSKLTVDKSRWQQGNVFSCSVMHEALHNHYTQKSLSLSPGK
heavy: DIQMTQSPSTLSASVGDRVTITCQASQSLYNNKNLAWYQQKPGCAPKLLIYYASALASGVPSRFSGSGSGTEFTLTISSLQPDDFATYYCQGEFNCNSADCNSFGGGTKVEIKGGGSGGSGGCPPCGGSGGQVQLVQSGAEVKKPGASVKVSCKASGFSLSSYAMSWVRQAPGQGLEWMGVIDSGGTTYYAQKFQGRVTMTRDTSTSTVYMELSSLRSEDTAVYYCARESYAGYDYYGHPIPYGMEPWGCGTLVTVSSGGGGSGGGGSEVQLLESGGGLVQPGGSLRLSCAVSGIDLSNNAISWVRQAPGKGLEYVGVIGNTGDTYYADSAKGRFTISRDSSKTTLYLQMNSLRAEDTAVYFCVRGPPSYSSSVKNIWGQGTLVTVSSASTKGPSVFPLAPSSKSTSGGTAALGCLVKDYFPEPVTVSWNSGALTSGVHTFPAVLQSSGLYSLSSVVTVPSSSLGTQTYICNVNHKPSNTKVDKKVEPKSCDKTHTCPPCPAPEAAGGPSVFLFPPKPKDTLMISRTPEVTCVVVSVSHEDPEVKFNWYVDGVEVHNAKTKPREEQYNSTYRVVSVLTVLHQDWLNGKEYKCKVSNKALPAPIEKTISKAKGQPREPQVYTLPPSREEMTKNQVSLSCAVKGFYPSDIAVEWESNGQPENNYKTTPPVLDSDGSFFLVSKLTVDKSRWQQGNVFSCSVMHEALHNRFTQKSLSLSPGK
light: DIQMTQSPSSVSASVGDRVTITCQSSQSVYNNNWLSWLQQKPGKAPKRLIYDASKLESGVPSRFSGSGSGTDFTLTISSVQPEDAATYYCAGGFTGNVYTFGGGTKVEIKRTVAAPSVFIFPPSDEQLKSGTASVVCLLNNFYPREAKVQWKVDNALQSGNSQESVTEQDSKDSTYSLSSTLTLSKADYEKHKVYACEVTHQGLSSPVTKSFNRGEC
notes: Chain B heavy: CALRB1114 spFv N-terminal of the CALRB421 heavy chain
B2: C3CRB134 CALRmut x CD3 bispecific antibody (bispecific antibody)
scFv: DIQMTQSPSSLSASVGDRVTITCRARQSIGTAIHWYQQKPGCAPKLLIKYASESISGVPSRFSGSGSGTDFTLTISSLQPEDFATYYCQQSGSWPYTFGQGTKLEIKGGGSGGSGGCPPCGGSGGEVQLVESGGGLVKPGGSLRLSCAASGFTFSRYNMNWVRQAPGKGLEWVSSISTSSNYIYYADSVKGRFTFSRDNAKNSLDLQMSGLRAEDTAIYYCTRGWGPFDYWGCGTLVTVSSEPKSSDKTHTCPPCPAPEAAGGPSVFLFPPKPKDTLMISRTPEVTCVVVSVSHEDPEVKFNWYVDGVEVHNAKTKPREEQYNSTYRVVSVLTVLHQDWLNGKEYKCKVSNKALPAPIEKTISKAKGQPREPQVYTLPPSREEMTKNQVSLWCLVKGFYPSDIAVEWESNGQPENNYKTTPPVLDSDGSFFLYSKLTVDKSRWQQGNVFSCSVMHEALHNHYTQKSLSLSPGK
heavy: EVQLLESGGGLVQPGGSLRLSCAVSGIDLSNNAISWVRQAPGKGLEYVGVIGNTGDTYYADSAKGRFTISRDSSKTTLYLQMNSLRAEDTAVYFCVRGPPSYSSSVKNIWGQGTLVTVSSASTKGPSVFPLAPSSKSTSGGTAALGCLVKDYFPEPVTVSWNSGALTSGVHTFPAVLQSSGLYSLSSVVTVPSSSLGTQTYICNVNHKPSNTKVDKKVEPKSCGGGGSGGGGSDIQMTQSPSTLSASVGDRVTITCQASQSLYNNKNLAWYQQKPGCAPKLLIYYASALASGVPSRFSGSGSGTEFTLTISSLQPDDFATYYCQGEFNCNSADCNSFGGGTKVEIKGGGSGGSGGCPPCGGSGGQVQLVQSGAEVKKPGASVKVSCKASGFSLSSYAMSWVRQAPGQGLEWMGVIDSGGTTYYAQKFQGRVTMTRDTSTSTVYMELSSLRSEDTAVYYCARESYAGYDYYGHPIPYGMEPWGCGTLVTVSSEPKSSDKTHTCPPCPAPEAAGGPSVFLFPPKPKDTLMISRTPEVTCVVVSVSHEDPEVKFNWYVDGVEVHNAKTKPREEQYNSTYRVVSVLTVLHQDWLNGKEYKCKVSNKALPAPIEKTISKAKGQPREPQVYTLPPSREEMTKNQVSLSCAVKGFYPSDIAVEWESNGQPENNYKTTPPVLDSDGSFFLVSKLTVDKSRWQQGNVFSCSVMHEALHNRFTQKSLSLSPGK
light: DIQMTQSPSSVSASVGDRVTITCQSSQSVYNNNWLSWLQQKPGKAPKRLIYDASKLESGVPSRFSGSGSGTDFTLTISSVQPEDAATYYCAGGFTGNVYTFGGGTKVEIKRTVAAPSVFIFPPSDEQLKSGTASVVCLLNNFYPREAKVQWKVDNALQSGNSQESVTEQDSKDSTYSLSSTLTLSKADYEKHKVYACEVTHQGLSSPVTKSFNRGEC
notes: Chain B heavy: CALRB421 Fab heavy part, CALRB1114 spFv, Fc
B3: C3CRB137 CALRmut x CD3 bispecific antibody (bispecific antibody, human IgG1, kappa, L234A L235A)
scFv: DIQMTQSPSSLSASVGDRVTITCRARQSIGTAIHWYQQKPGCAPKLLIKYASESISGVPSRFSGSGSGTDFTLTISSLQPEDFATYYCQQSGSWPYTFGQGTKLEIKGGGSGGSGGCPPCGGSGGEVQLVESGGGLVKPGGSLRLSCAASGFTFSRYNMNWVRQAPGKGLEWVSSISTSSNYIYYADSVKGRFTFSRDNAKNSLDLQMSGLRAEDTAIYYCTRGWGPFDYWGCGTLVTVSSEPKSSDKTHTCPPCPAPEAAGGPSVFLFPPKPKDTLMISRTPEVTCVVVSVSHEDPEVKFNWYVDGVEVHNAKTKPREEQYNSTYRVVSVLTVLHQDWLNGKEYKCKVSNKALPAPIEKTISKAKGQPREPQVYTLPPSREEMTKNQVSLWCLVKGFYPSDIAVEWESNGQPENNYKTTPPVLDSDGSFFLYSKLTVDKSRWQQGNVFSCSVMHEALHNHYTQKSLSLSPGK
heavy: EVQLLESGGGLVQPGGSLRLSCAVSGIDLSNNAISWVRQAPGKGLEYVGVIGNTGDTYYADSAKGRFTISRDSSKTTLYLQMNSLRAEDTAVYFCVRGPPSYSSSVKNIWGQGTLVTVSSASTKGPSVFPLAPSSKSTSGGTAALGCLVKDYFPEPVTVSWNSGALTSGVHTFPAVLQSSGLYSLSSVVTVPSSSLGTQTYICNVNHKPSNTKVDKKVEPKSCGGGGSGGGGSEVQLLESGGGLVQPGGSLRLSCAVSGIDLSNNAISWVRQAPGKGLEYVGVIGNTGDTYYADSAKGRFTISRDSSKTTLYLQMNSLRAEDTAVYFCVRGPPSYSSSVKNIWGQGTLVTVSSASTKGPSVFPLAPSSKSTSGGTAALGCLVKDYFPEPVTVSWNSGALTSGVHTFPAVLQSSGLYSLSSVVTVPSSSLGTQTYICNVNHKPSNTKVDKKVEPKSCDKTHTCPPCPAPEAAGGPSVFLFPPKPKDTLMISRTPEVTCVVVSVSHEDPEVKFNWYVDGVEVHNAKTKPREEQYNSTYRVVSVLTVLHQDWLNGKEYKCKVSNKALPAPIEKTISKAKGQPREPQVYTLPPSREEMTKNQVSLSCAVKGFYPSDIAVEWESNGQPENNYKTTPPVLDSDGSFFLVSKLTVDKSRWQQGNVFSCSVMHEALHNRFTQKSLSLSPGK
light: DIQMTQSPSSVSASVGDRVTITCQSSQSVYNNNWLSWLQQKPGKAPKRLIYDASKLESGVPSRFSGSGSGTDFTLTISSVQPEDAATYYCAGGFTGNVYTFGGGTKVEIKRTVAAPSVFIFPPSDEQLKSGTASVVCLLNNFYPREAKVQWKVDNALQSGNSQESVTEQDSKDSTYSLSSTLTLSKADYEKHKVYACEVTHQGLSSPVTKSFNRGEC
notes: Chain B heavy: two CALRB421 Fab heavy parts in tandem, Fc

Tests used:
[1] = target: T1, CALRins5 (mutant calreticulin, 5 base …); assay: flow cytometry on OCI-M2 MPL CALRins5 cells, 1 h at 37 C, AF647 secondary antibody, Geometric mean
Method: (§1) FIGS. 27A-27F depict binding of different CALRmutxCD3 antibodies to CALRmut-negative or CALRmut-positive cells. Flow cytometry was used to evaluate CALRmutxCD3 binding to CALRmut-negative and CALRmut-positive cancer cells in vitro. CALRmutxCD3 antibodies were tested on a panel of cell lines, engineered to express MPL and CALRmut, after 1 hour 37° C. incubation, with subsequent incubation with secondary AF647-labeled antibody. Geometric mean fluorescence intensity of AF647 was measured to determine antibody binding.

[2] = target: T2, wild-type calreticulin (CALRwt) …; assay: flow cytometry on OCI-M2 MPL CALRwt cells, 1 h at 37 C, AF647 secondary antibody, Geometric mean
Method: as §1

[3] = target: T1, CALRins5 (mutant calreticulin, 5 base …); assay: flow cytometry on ELF-153 MPL CALRins5 cells, 1 h at 37 C, AF647 secondary antibody, Geometric mean
Method: as §1

Binder	EC50 (read off the curve) [1] [nM]	binding result [2]	EC50 (read off the curve) [3] [nM]
B1	~5	no binding (tested: 100 nM)	~1
B2	~3	no binding (tested: 100 nM)	~1
B3	–	no binding (tested: 100 nM)	~1
